Experimental findings from US20250109209A1 (ABSCI, published 2025) are described below.

The term Kd denotes a measure of binding affinity in units of concentration. Higher therefore signals a looser complex.

Like-named read-outs stand apart in the source and are kept apart here.

One experiment has as its target T1, FcRn (UniProt P55899 24-297; P61769 21-119).
T1 construct: also called neonatal receptor
In words: SPR, mAb format, FcRn at pH 6.0, average. (In SPR one partner is held on a chip, and binding of the other changes the refractive index at the surface.)

The target in experiment [1] is T2, human TL1A (human, UniProt O95150 72-251).
T2 construct: Antigen in SPR and ELISA; Also used here for places that print only 'TL1A' and for endogenous TL1A in human whole blood; also called TNFSF15
T2 sequence (looked up): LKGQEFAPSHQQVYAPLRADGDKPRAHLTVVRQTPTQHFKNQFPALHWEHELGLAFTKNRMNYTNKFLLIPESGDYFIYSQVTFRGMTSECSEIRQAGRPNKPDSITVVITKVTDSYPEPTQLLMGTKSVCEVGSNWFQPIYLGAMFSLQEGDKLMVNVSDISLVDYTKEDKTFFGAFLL
In words: SPR, mAb format, average.

Experiment [2] addresses T2, human TL1A. In words: SPR, mAb format, average. The source holds these as a separate data set.
The target in the next experiment is T3, mouse TL1A (mouse, UniProt Q5UBV8 76-252, limits assumed).
T3 sequence (looked up): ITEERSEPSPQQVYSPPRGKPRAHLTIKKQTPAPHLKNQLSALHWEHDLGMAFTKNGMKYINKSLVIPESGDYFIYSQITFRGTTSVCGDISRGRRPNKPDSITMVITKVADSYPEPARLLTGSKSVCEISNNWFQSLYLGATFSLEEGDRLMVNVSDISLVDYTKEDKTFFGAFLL
In words: SPR, mAb format, average.

For a further experiment, the target named is T4, Cyno TL1A (cyno, UniProt G7PRK8 72-251).
T4 sequence: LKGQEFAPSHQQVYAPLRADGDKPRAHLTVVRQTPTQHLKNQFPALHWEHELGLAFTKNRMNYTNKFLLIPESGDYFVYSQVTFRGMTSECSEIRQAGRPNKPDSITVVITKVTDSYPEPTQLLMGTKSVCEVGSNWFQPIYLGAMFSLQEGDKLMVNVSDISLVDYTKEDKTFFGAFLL
In words: SPR, mAb format, average.

Experiment [3] concerns the target T2, human TL1A. In words: SPR, mAb format, average. The source holds these as a separate data set.

T1 sequence (P55899 24-297 limits assumed, chain 1 of 2): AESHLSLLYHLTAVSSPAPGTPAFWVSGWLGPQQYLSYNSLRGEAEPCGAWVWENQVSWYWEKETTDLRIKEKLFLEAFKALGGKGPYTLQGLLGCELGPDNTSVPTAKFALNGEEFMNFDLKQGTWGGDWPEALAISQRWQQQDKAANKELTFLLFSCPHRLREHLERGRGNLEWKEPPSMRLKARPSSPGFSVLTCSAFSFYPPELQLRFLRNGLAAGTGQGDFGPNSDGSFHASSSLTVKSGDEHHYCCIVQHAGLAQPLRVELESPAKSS
T1 sequence (P61769 21-119 limits assumed, chain 2 of 2): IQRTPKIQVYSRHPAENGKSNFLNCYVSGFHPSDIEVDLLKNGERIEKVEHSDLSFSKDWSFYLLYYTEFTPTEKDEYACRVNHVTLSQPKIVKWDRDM

B1: Antibody 4 (mAb format) (antibody, human IgG1, kappa, N297A)
heavy: QVQLQESGPGLVRPSQTLSLTCTVSGFDMADTYMHWVRQRPGRGLEWMGRIEPAGGHTKYNPSLKSRVTITRDTSKNQVSLRLSSVTAADTAVYYCVRSGGLPDMWGQGSLVTVSSASTKGPSVFPLAPSSKSTSGGTAALGCLVKDYFPEPVTVSWNSGALTSGVHTFPAVLQSSGLYSLSSVVTVPSSSLGTQTYICNVNHKPSNTKVDKKVEPKSCDKTHTCPPCPAPELLGGPSVFLFPPKPKDTLMISRTPEVTCVVVDVSHEDPEVKFNWYVDGVEVHNAKTKPREEQYASTYRVVSVLTVLHQDWLNGKEYKCKVSNKALPAPIEKTISKAKGQPREPQVYTLPPSRDELTKNQVSLTCLVKGFYPSDIAVEWESNGQPENNYKTTPPVLDSDGSFFLYSKLTVDKSRWQQGNVFSCSVLHEALHSHYTQKSLSLSPGK
light: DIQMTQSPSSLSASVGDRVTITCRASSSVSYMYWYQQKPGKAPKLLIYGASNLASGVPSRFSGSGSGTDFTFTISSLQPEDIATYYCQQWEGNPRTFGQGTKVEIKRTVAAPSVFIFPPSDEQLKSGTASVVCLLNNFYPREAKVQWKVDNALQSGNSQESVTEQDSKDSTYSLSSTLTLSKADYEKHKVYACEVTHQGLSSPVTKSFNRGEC
notes: also called high priority lead mAb
As to B1, the Kd was 16.9 nM in the experiment with FcRn; 0.051 nM with human TL1A [1]; 0.051 nM with human TL1A [2]; 290 nM in the experiment with mouse TL1A; 0.034 nM in the experiment with Cyno TL1A; 0.051 nM with human TL1A [3].

B2: Antibody 8 (mAb format) (antibody, human IgG1, kappa, N297A)
heavy: QVQLQESGPGLVRPSQTLSLTCTVSGFDMQSTYMHWVRQRPGRGLEWMGRIEPAGGHTKYNPSLKSRVTITRDTSKNQVSLRLSSVTAADTAVYYCVRSGGLPDVWGQGSLVTVSSASTKGPSVFPLAPSSKSTSGGTAALGCLVKDYFPEPVTVSWNSGALTSGVHTFPAVLQSSGLYSLSSVVTVPSSSLGTQTYICNVNHKPSNTKVDKKVEPKSCDKTHTCPPCPAPELLGGPSVFLFPPKPKDTLMISRTPEVTCVVVDVSHEDPEVKFNWYVDGVEVHNAKTKPREEQYASTYRVVSVLTVLHQDWLNGKEYKCKVSNKALPAPIEKTISKAKGQPREPQVYTLPPSRDELTKNQVSLTCLVKGFYPSDIAVEWESNGQPENNYKTTPPVLDSDGSFFLYSKLTVDKSRWQQGNVFSCSVLHEALHSHYTQKSLSLSPGK
light: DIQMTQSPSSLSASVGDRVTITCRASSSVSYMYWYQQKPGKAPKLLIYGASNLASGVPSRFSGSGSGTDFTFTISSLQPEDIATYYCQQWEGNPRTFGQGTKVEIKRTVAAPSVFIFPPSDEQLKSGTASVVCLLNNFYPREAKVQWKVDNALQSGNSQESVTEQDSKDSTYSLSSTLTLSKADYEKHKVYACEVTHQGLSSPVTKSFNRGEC
notes: as for B1
On to B2, for which the equilibrium dissociation constant (Kd) with FcRn worked out at 17.6 nM; with human TL1A [1] it was 0.091 nM; with human TL1A [2] it was 0.091 nM; with mouse TL1A it was 418 nM; with Cyno TL1A it was 0.085 nM; in the experiment with human TL1A [3], 0.091 nM.

B3: Antibody 6 (mAb format) (antibody, human IgG1, kappa, N297A)
heavy: QVQLQESGPGLVRPSQTLSLTCTVSGFDMADTYMHWVRQRPGRGLEWMGRIEPAGGHTKYNPSLKSRVTITRDTSKNQVSLRLSSVTAADTAVYYCVRSGGLPDMWGQGSLVTVSSASTKGPSVFPLAPSSKSTSGGTAALGCLVKDYFPEPVTVSWNSGALTSGVHTFPAVLQSSGLYSLSSVVTVPSSSLGTQTYICNVNHKPSNTKVDKKVEPKSCDKTHTCPPCPAPELLGGPSVFLFPPKPKDTLMISRTPEVTCVVVDVSHEDPEVKFNWYVDGVEVHNAKTKPREEQYASTYRVVSVLTVLHQDWLNGKEYKCKVSNKALPAPIEKTISKAKGQPREPQVYTLPPSRDELTKNQVSLTCLVKGFYPSDIAVEWESNGQPENNYKTTPPVLDSDGSFFLYSKLTVDKSRWQQGNVFSCSVLHEALHSHYTQKSLSLSPGK
light: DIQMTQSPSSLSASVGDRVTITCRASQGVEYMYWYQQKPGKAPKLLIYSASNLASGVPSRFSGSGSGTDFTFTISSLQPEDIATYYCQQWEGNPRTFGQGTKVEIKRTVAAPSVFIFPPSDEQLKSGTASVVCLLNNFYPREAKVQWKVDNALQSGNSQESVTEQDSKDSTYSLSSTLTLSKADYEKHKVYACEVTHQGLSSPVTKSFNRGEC
notes: as for B1
With B3, the Kd with FcRn was 20.9 nM; in the experiment with human TL1A [1], 0.101 nM; in the experiment with human TL1A [2], 0.101 nM; with mouse TL1A it was 1720 nM; in the experiment with Cyno TL1A it was 0.085 nM; with human TL1A [3], 0.101 nM.

B4: Antibody 5 (mAb format) (antibody, human IgG1, kappa, N297A)
heavy: QVQLQESGPGLVRPSQTLSLTCTVSGFDMQDTYMHWVRQRPGRGLEWMGRIEPASGHTKYNPSLKSRVTITRDTSKNQVSLRLSSVTAADTAVYYCVRSGGLPDVWGQGSLVTVSSASTKGPSVFPLAPSSKSTSGGTAALGCLVKDYFPEPVTVSWNSGALTSGVHTFPAVLQSSGLYSLSSVVTVPSSSLGTQTYICNVNHKPSNTKVDKKVEPKSCDKTHTCPPCPAPELLGGPSVFLFPPKPKDTLMISRTPEVTCVVVDVSHEDPEVKFNWYVDGVEVHNAKTKPREEQYASTYRVVSVLTVLHQDWLNGKEYKCKVSNKALPAPIEKTISKAKGQPREPQVYTLPPSRDELTKNQVSLTCLVKGFYPSDIAVEWESNGQPENNYKTTPPVLDSDGSFFLYSKLTVDKSRWQQGNVFSCSVLHEALHSHYTQKSLSLSPGK
light: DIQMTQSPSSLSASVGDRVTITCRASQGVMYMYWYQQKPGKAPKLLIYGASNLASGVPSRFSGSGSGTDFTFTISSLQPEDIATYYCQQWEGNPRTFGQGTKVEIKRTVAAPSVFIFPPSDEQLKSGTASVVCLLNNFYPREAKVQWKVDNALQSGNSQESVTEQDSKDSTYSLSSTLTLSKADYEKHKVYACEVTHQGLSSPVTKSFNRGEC
notes: as for B1
Consider B4, for which the Kd in the experiment with FcRn worked out at 17.2 nM; with human TL1A [1], 0.073 nM; in the experiment with human TL1A [2] it was 0.073 nM; with mouse TL1A, 727 nM; with Cyno TL1A, 0.038 nM; with human TL1A [3], 0.073 nM.

B5: Antibody 11 (mAb format) (antibody, human IgG1, kappa, N297A)
heavy: QVQLQESGPGLVRPSQTLSLTCTVSGFDMGDTYMHWVRQRPGRGLEWMGRIEPAGGHTKYNPSLKSRVTITRDTSKNQVSLRLSSVTAADTAVYYCVRSGGMPDVWGQGSLVTVSSASTKGPSVFPLAPSSKSTSGGTAALGCLVKDYFPEPVTVSWNSGALTSGVHTFPAVLQSSGLYSLSSVVTVPSSSLGTQTYICNVNHKPSNTKVDKKVEPKSCDKTHTCPPCPAPELLGGPSVFLFPPKPKDTLMISRTPEVTCVVVDVSHEDPEVKFNWYVDGVEVHNAKTKPREEQYASTYRVVSVLTVLHQDWLNGKEYKCKVSNKALPAPIEKTISKAKGQPREPQVYTLPPSRDELTKNQVSLTCLVKGFYPSDIAVEWESNGQPENNYKTTPPVLDSDGSFFLYSKLTVDKSRWQQGNVFSCSVLHEALHSHYTQKSLSLSPGK
light: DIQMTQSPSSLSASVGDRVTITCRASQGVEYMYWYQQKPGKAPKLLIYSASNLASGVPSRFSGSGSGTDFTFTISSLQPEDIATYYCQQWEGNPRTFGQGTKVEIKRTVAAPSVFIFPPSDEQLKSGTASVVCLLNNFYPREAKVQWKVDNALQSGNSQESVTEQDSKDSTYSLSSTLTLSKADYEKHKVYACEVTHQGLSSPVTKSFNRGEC
notes: as for B1
As to B5, the equilibrium dissociation constant (Kd) with FcRn worked out at 20.4 nM; with human TL1A [1] it was 0.2 nM; in the experiment with human TL1A [2] it was 0.2 nM; with mouse TL1A it was 842 nM; with Cyno TL1A it was 0.135 nM; with human TL1A [3] it was 0.2 nM.

B6: Antibody 9 (mAb format) (antibody, human IgG1, kappa, N297A)
heavy: QVQLQESGPGLVRPSQTLSLTCTVSGFDIQDTYMHWVRQRPGRGLEWMGRIEPAGGHTKYNPSLKSRVTITRDTSKNQVSLRLSSVTAADTAVYYCVRSGGLPDAWGQGSLVTVSSASTKGPSVFPLAPSSKSTSGGTAALGCLVKDYFPEPVTVSWNSGALTSGVHTFPAVLQSSGLYSLSSVVTVPSSSLGTQTYICNVNHKPSNTKVDKKVEPKSCDKTHTCPPCPAPELLGGPSVFLFPPKPKDTLMISRTPEVTCVVVDVSHEDPEVKFNWYVDGVEVHNAKTKPREEQYASTYRVVSVLTVLHQDWLNGKEYKCKVSNKALPAPIEKTISKAKGQPREPQVYTLPPSRDELTKNQVSLTCLVKGFYPSDIAVEWESNGQPENNYKTTPPVLDSDGSFFLYSKLTVDKSRWQQGNVFSCSVLHEALHSHYTQKSLSLSPGK
light: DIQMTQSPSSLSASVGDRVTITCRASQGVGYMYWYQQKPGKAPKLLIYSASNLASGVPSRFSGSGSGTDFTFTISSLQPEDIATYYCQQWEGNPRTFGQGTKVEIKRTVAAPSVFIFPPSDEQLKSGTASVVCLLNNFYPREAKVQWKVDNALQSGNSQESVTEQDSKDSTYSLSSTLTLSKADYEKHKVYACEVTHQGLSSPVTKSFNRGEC
notes: as for B1
On to B6, for which the equilibrium dissociation constant (Kd) came out at 18.2 nM with FcRn; 0.096 nM in the experiment with human TL1A [1]; 0.096 nM with human TL1A [2]; 739 nM with mouse TL1A; 0.064 nM with Cyno TL1A; 0.096 nM with human TL1A [3].

B7: Antibody 7 (mAb format) (antibody, human IgG1, kappa, N297A)
heavy: QVQLQESGPGLVRPSQTLSLTCTVSGFDMGDTYMHWVRQRPGRGLEWMGRIEPAAGHTKYNPSLKSRVTITRDTSKNQVSLRLSSVTAADTAVYYCVRSGGLPDIWGQGSLVTVSSASTKGPSVFPLAPSSKSTSGGTAALGCLVKDYFPEPVTVSWNSGALTSGVHTFPAVLQSSGLYSLSSVVTVPSSSLGTQTYICNVNHKPSNTKVDKKVEPKSCDKTHTCPPCPAPELLGGPSVFLFPPKPKDTLMISRTPEVTCVVVDVSHEDPEVKFNWYVDGVEVHNAKTKPREEQYASTYRVVSVLTVLHQDWLNGKEYKCKVSNKALPAPIEKTISKAKGQPREPQVYTLPPSRDELTKNQVSLTCLVKGFYPSDIAVEWESNGQPENNYKTTPPVLDSDGSFFLYSKLTVDKSRWQQGNVFSCSVLHEALHSHYTQKSLSLSPGK
light: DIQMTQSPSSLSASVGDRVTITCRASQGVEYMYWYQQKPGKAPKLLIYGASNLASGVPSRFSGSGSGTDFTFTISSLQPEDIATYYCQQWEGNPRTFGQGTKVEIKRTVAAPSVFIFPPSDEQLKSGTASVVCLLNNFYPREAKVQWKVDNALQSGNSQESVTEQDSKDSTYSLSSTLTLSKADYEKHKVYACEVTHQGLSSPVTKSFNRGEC
notes: as for B1
For the molecule B7, the dissociation constant Kd in the experiment with FcRn came out at 19 nM; with human TL1A [1], 0.179 nM; in the experiment with human TL1A [2] it was 0.179 nM; with mouse TL1A it was 1270 nM; in the experiment with Cyno TL1A it was 0.125 nM; with human TL1A [3], 0.179 nM.
